Experimental data published in the Human Domainome abundance scans (Beltran et al. 2025).

B1: CD2-associated protein, residues 1 to 59; numbered along this chain, Q9Y5K6 (parent)
chain: MVDYIVEYDYDAVHDDELTIRVGEIIRNVKKLQEEGWLEGELNGRRGMFPDNFVKEIKR

Variants of: B1
Assay: abundance fitness (aPCA) (normalised: wild type 0, dead -1); higher = more abundant; growth selection in yeast, the domain comes from the species named
Conditions: Homo sapiens

Abundance fitness, by site and new letter:
K30: Q -0.31; A -0.181; F -0.158; H 0.111; V -0.166; I -0.274; T -0.07; L -0.191; S -0.135; M 0.018; R -0.071; W -0.192; G -0.127; C -0.148; E 0.007; N -0.113; D -0.22
T19: C -0.384; M -0.713; D -0.36; H -0.399; Y -0.846; I -0.753; N -0.224; K -0.464; G -0.792; P -0.685; W -0.929; L -0.682; Q -0.498; S -0.033; R -0.66; F -0.841; A -0.756
G36: Q -0.467; S -0.352; C -0.403; V -0.745; M -0.433; H -0.231; N -0.174; L -0.978; D -0.551; R -0.195; P -0.143; F -0.622; E -0.659; I -0.632; T -0.618; Y -0.614
L38: A -0.25; K -0.264; F -0.105; M 0.049; D -0.721; I -0.433; P -1.07; S 0.003; E -0.867; G -0.996; H -0.662; C -0.193; N -0.558; R -0.563; Y -0.27; T -0.548; V -0.525
K31: T 0.03; S -0.13; W -0.328; V -0.092; I 0.191; Q -0.07; C 0.109; Y -0.159; G -0.096; F -0.728; N -0.311; H 0.036; P 0.089; L -0.214; A 0.053; E -0.061; R -0.069
R21: A -0.826; T -0.593; S -0.433; N -0.827; Y -1; V -0.755; H -0.161; C -0.284; K -0.28; Q -0.414; P -0.793; M -0.713; L -0.358
R27: K -0.283; Q -0.147; A -0.228; S -0.064; L -0.208; H 0.059; C -0.038; Y -0.291; V -0.096; N -0.173; T -0.013; D -0.838; I -0.155; G -0.148; M -0.133; F -0.195; E -0.081
E39: K -0.302; A -0.146; I -0.142; D -0.541; C 0; H -0.202; F -0.432
N28: V -0.927; S -0.176; T -0.615; D 0.04; L -0.734; H -0.206; F -0.516; G -0.025; Q -0.15; E -0.185; W -0.892; P -0.909; A -0.387; C -0.215; K -0.262
G23: W -0.955; K -0.383; A -0.911; S -0.651; M -0.918; C -0.831; Q -0.557; T -0.755; V -0.844; N -0.581; L -1.17; P -1.04; R -0.856; I -0.739; Y -0.522
V22: F -0.17; T -0.067; G -0.02; S -0.09; C -0.304; W -0.703; Y -0.301; A 0.16; M -0.52; H -0.201; I -0.273; E 0.115; R -0.082; L -0.438
E17: M -0.534; V -0.747; N -0.421; T -0.461; C -0.407; L -0.882; Y -0.736; G -0.34; Q 0.146; F -0.466; D -0.13; R -0.567; A -0.628
L18: M -0.244; S -0.651; F -0.846; V -0.499; R -0.504; K -0.737; C -0.661; Y -0.904; A -0.683
I26: L -0.107; S -0.79; C -0.517; R -0.894; V -0.177; G -0.926; N -0.988; W -0.743; A -0.636
E34: Y -0.089; M 0.05; W -0.057; T -0.028; N 0.009; L 0.004; Q -0.241; A -0.048; H 0.173; I 0.074; C 0.094; G -0.034; D -0.148; R 0.018; P -0.152; K 0.075; V -0.006
E35: W -0.399; N 0.054; Q -0.07; L -0.205; F -0.158; R -0.016; V -0.049; D -0.032; I -0.062; A -0.067; G -0.071; C -0.156; P 0.051; S -0.082; M -0.189; Y -0.215; K 0.027; H -0.068; T -0.177
I25: Q -0.338; G -0.718; P -0.845; R -0.079; T -0.064; M -0.28; A -0.667; H -0.146; C -0.392; Y -0.294; K -0.043; W -0.519; S -0.541; V -0.088; E -0.516
L32: E -0.088; S -0.011; I -0.238; G -0.013; M -0.159; V 0.074; K 0.01; Y -0.206; F 0.016; C 0.003; T -0.302; N -0.078; A 0.118; P -0.152; H -0.001; D -0.223
Q33: S 0.03; A -0.071; N 0.102; M -0.238; T 0.006; F -0.182; L -0.351; I -0.36; C -0.192; G 0.015; Y -0.242; W -0.474; H -0.119; K -0.07; V -0.317; E -0.014; D 0.065; R -0.084
W37: Y -0.02; V -0.253; Q -0.32; M -0.219; R -0.298; G -0.779; L -0.273; T -0.359; S -0.277; K -0.469; I -0.451
I20: W -0.736; F -0.373; L -0.014; N -0.792; C -0.292; D -0.933; M -0.019; V -0.225; S -0.743; A -0.546; P -0.762
V29: G -0.261; C -0.167; K -0.999; I -0.441; S -0.448; T -0.378; R -1.04; M -0.883; L -0.62; D -0.866; A -0.069; E -0.251
E24: N -0.412; R -0.687; D 0.321; V -0.94; C -0.625; W -0.764; T -0.449; F -0.338; G -0.341; M -0.387; Q -0.263
D16: P -0.434; V -0.088; W -0.08; N 0.001; S -0.036; Y 0.03; Q -0.12; T 0.005
